Substitutions are numbered along the chain they refer to.
Legend:
[1] = biological target: T1, Rhesus ANG2 (rhesus, UniProt F6QXG0 19-496); assay: SPR, Biacore T200, antibody captured on Protein G chip, experiment 3
T1 sequence: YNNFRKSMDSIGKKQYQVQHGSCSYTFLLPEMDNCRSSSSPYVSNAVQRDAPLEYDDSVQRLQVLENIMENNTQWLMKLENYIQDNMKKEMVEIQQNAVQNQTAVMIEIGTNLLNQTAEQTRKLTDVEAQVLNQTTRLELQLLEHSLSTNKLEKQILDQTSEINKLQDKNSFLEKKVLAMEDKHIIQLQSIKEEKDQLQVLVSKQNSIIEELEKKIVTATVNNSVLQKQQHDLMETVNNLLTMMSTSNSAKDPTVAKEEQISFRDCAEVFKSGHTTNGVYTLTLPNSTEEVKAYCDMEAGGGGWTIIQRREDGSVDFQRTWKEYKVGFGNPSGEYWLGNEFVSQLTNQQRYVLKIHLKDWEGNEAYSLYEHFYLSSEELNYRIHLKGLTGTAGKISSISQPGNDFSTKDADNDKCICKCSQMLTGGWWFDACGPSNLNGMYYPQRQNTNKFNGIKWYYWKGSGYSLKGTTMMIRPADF
Protocol: (§1) The antibody was diluted to 1 μg/mL and was captured onto channel 2 for 30 s, and channel 1 was the blank control channel. The gradient-diluted Human ANG2, Rhesus ANG2, Rabbit ANG2, Rat ANG2 and Mouse ANG2 were sequentially injected into channels 1 and 2 of the chip, from low to high concentrations (0-32 nM), at a flow rate of 30 μL/min, with one concentration per cycle, and with 180 s association time and 1200 s dissociation time at 25° C. Finally, the chip was regenerated using Glycine pH 1.5 at 30 μL/min for 30 s. The affinity assay was repeated three times.

[2] = biological target: T2, Rabbit ANG2 (rabbit, UniProt G1T9B3 19-496); assay: as above
T2 sequence: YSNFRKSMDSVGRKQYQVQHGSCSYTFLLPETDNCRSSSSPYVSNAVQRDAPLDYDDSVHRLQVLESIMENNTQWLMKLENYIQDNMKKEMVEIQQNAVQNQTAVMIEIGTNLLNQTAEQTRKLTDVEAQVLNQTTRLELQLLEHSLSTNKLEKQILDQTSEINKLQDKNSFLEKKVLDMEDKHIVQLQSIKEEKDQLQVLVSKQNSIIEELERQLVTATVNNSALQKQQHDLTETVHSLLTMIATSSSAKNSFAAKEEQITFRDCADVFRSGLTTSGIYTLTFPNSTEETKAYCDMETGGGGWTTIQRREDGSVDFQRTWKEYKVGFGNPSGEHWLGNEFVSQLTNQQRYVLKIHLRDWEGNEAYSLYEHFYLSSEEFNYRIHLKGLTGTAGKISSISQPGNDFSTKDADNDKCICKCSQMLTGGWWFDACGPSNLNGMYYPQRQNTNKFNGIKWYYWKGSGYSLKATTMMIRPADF
Protocol: as §1

[3] = biological target: T3, human Ang2 (human, UniProt O15123 19-496, limits assumed); assay: as above
T3 construct: also called hAng2; h Ang2
T3 sequence: T1 sequence with V279I, L284F, V291I, A410G, G468A
Protocol: as §1

[4] = biological target: T4, recombinant biotinylated hAngiopoietin-2 protein (R&D, Cat. No.: BT623B/CF) (human, UniProt O15123 19-496, limits assumed, biotinylated (sites not given)); assay: ELISA: biotin Ang2 (R&D BT623B/CF) captured on coated streptavidin (SA), antibody titrated, anti-human IgG-HRP, OD450-OD620, GraphPad fit
T4 construct: Bought protein; also called Biotin Ang2; human biotin Ang2 protein
T4 sequence: T1 sequence with V279I, L284F, V291I, A410G, G468A
Protocol: The binding of 81H10 and hz81H10.4 of the present invention to human biotin Ang2 protein was measured in an SA-biotin Ang2-based ELISA assay.
SA protein (Thermo Fisher) was diluted to 1 μg/ml with PBS, and was coated onto a microtiter plate at 100 μl/well at 4° C. overnight. After three washes with PBST, the plate was blocked with 5% BSA for 1 h. Biotin Ang2 (R&D, Cat. No. BT623B/CF) was incubated at a concentration of 0.5 μg/ml for 1 h. Gradient diluted antibodies (maximum concentration 20 nM, 1:3 serial dilution) were added to the microtiter plate and incubated for 2 h, and the plate was washed three times with PBST. […] Then the plate was washed for 6 times with PBST. Chromogenic reaction was performed with 100 ul TMB and terminated with 100 ul 2N sulfuric acid. The reading of OD₄₅₀-OD₆₂₀ was taken by microplate reader. The concentration-dependent curve was fitted with GraphPad based on the OD₄₅₀-OD₆₂₀.

[5] = biological target: T1, Rhesus ANG2; assay: SPR, Biacore T200, antibody captured on Protein G chip, experiment 2
Protocol: as §1

[6] = biological target: T2, Rabbit ANG2; assay: as above
Protocol: as §1

[7] = biological target: T3, human Ang2; assay: as above
Protocol: as §1

B1: humanized antibody hz81H10.4 (antibody, human IgG1, kappa, V domains shown)
VH: EVQLVESGGGLVKPGGSLRLSCAASGFTFSNYWMNWVRQAPGKGLEWVAEIRLKSNNYATHYAESVKGRFTISRDVSKNTVYLQMNSLKTEDTAVYYCTDTAPFAYWGQGTLVTVSS
VL: DIQMTQSPSSLSASVGDRVTITCKASQDVGTDVAWYQQKPGKAPKLLIYWASTRHTGVPSRFSGSGSGTDFTLTISSLQPEDFATYYCQQYSSYPLTFGGGTKVEIKR
notes: also called IBI335
Work on B1 yielded a Kd [1] of 0.13 nM, a koff [1] of 4.03e-05 s⁻¹ and a kon [1] of 311000 M⁻¹ s⁻¹. For the same binder, the Kd [2] was 0.446 nM, the koff [2] was 0.000144 s⁻¹ and the kon [2] was 322000 M⁻¹ s⁻¹. It also gave a Kd [3] of 0.0357 nM, a koff [3] of 1.05e-05 s⁻¹ and a kon [3] of 293000 M⁻¹ s⁻¹. The EC50 [4] was 0.0212 nM, the Kd [5] was 0.126 nM and the koff [5] was 3.67e-05 s⁻¹. It also gave a kon [5] of 291000 M⁻¹ s⁻¹, a Kd [6] of 0.477 nM and a koff [6] of 0.000152 s⁻¹. It also gave a kon [6] of 318000 M⁻¹ s⁻¹, a Kd [7] of 0.0319 nM and a koff [7] of 8.25e-06 s⁻¹. The kon [7] was 259000 M⁻¹ s⁻¹.
